According to IntAct's records for PubMed 19008859:

B1: Myocardin-related transcription factor A (Mus musculus), Q8K4J6 (parent)
chain: MTLLEPEMLMMAVQSVLQLKLQQRRTREELVSQGIMPPLKSPAAFHEQRRSLERARTEDYLKRKIRSRPERAELVRMHILEETSAEPSLQAKQLKLKRARLADDLNEKIAQRPGPMELVEKNILPVESSLKEAIIVGQVNYPKVADSSSFDEDSSDALSPEQPASHESQGSVPSPLESRVSDPLPSATSISPTQVLSQLPMAPDPGETLFLAEQPPLPPAPLLPPSLANGSIVPTAKPAPTLIKQSQPKSASEKSQRSKKAKELKPKVKKLKYHQYIPPDQKQDKGAPAMDSSYAKILQQQQLFLQLQILNQQQQQQQQQHYNYQAILPAPPKPSAETPGSSAPTPSRSLSTSSSPSSGTPGPSGLARQSSTALAAKPGALPANLDDMKVAELKQELKLRSLPVSGTKTELIERLRAYQDQVSPAPGAPKAPATTSVLSKAGEVVVAFPAALLSTGSALVTAGLAPAEMVVATVTSNGMVKFGSTGSTPPVSPTPSERSLLSTGDENSTPGDAFGEMVTSPLTQLTLQASPLQIVKEEGARAASCCLSPGARAELEGLDKDQMLQEKDKQIEELTRMLQQKQQLVELLRLQLEQQKRAQQPAPASSPVKRESGFSSCQLSCQPQGSAHAFGSGLVVPTTNHGDTQAPAPESPPVVVKQEAGPPEPDLAPSSQLLLGSQGTSFLKRVSPPTLVTDSTGTHLILTVTNKSADGPGLPAGSPQQPLSQPGSPAPGPPAQMDLEHPPQPPFATPTSLLKKEPPGYEETVTQQPKQQENGSSSQHMDDLFDILIQSGEISADFKEPPSLPGKEKSPPAAAAYGPPLTPQPSPLSELPQAAPPPGSPTLPGRLEDFLESSTGLPLLTSGHEGPEPLSLIDDLHSQMLSSSAILDHPPSPMDTSELHFAPEPSSGMGLDLAVGHLDSMDWLELSSGGPVLSLAPLSTAAPSLFSMDFLDGHDLQLHWDSCL

Variants of: B1
Details: with acts_rabit ACTA1, P68135

Variant | effect of a mutation on the interaction
P69R | decreasing interaction

Variants of: B1
Details: with acts_rabit ACTA1, P68135
Remark: another data set of the same source

Variant | effect of a mutation on the interaction
L74A;I79A;L80A | disrupting interaction

Variants of: B1
Details: with acts_rabit ACTA1, P68135
Remark: another data set of the same source

Variant | effect of a mutation on the interaction
G114E;P115Q;L118A;I123A;L124A | disrupting interaction

Variants of: B1
Details: with acts_rabit ACTA1, P68135
Remark: another data set of the same source

Variant | effect of a mutation on the interaction
L105A;I109A | disrupting interaction

Variants of: B1
Details: with acts_rabit ACTA1, P68135
Remark: another data set of the same source

Variant | effect of a mutation on the interaction
R112A | disrupting interaction

Variants of: B1
Details: with acts_rabit ACTA1, P68135
Remark: another data set of the same source

Variant | effect of a mutation on the interaction
R24D;R25D | disrupting interaction

Variants of: B1
Details: with acts_rabit ACTA1, P68135
Remark: another data set of the same source

Variant | effect of a mutation on the interaction
L61A;I65A | disrupting interaction

Variants of: B1
Details: with acts_rabit ACTA1, P68135
Remark: another data set of the same source

Variant | effect of a mutation on the interaction
L118A;I123A;L124A | disrupting interaction

Variants of: B1
Details: with acts_rabit ACTA1, P68135
Remark: another data set of the same source

Variant | effect of a mutation on the interaction
R24A | disrupting interaction

Variants of: B1
Details: with acts_rabit ACTA1, P68135
Remark: another data set of the same source

Variant | effect of a mutation on the interaction
R68A | disrupting interaction

Variants of: B1
Details: with acts_rabit ACTA1, P68135
Remark: another data set of the same source

Variant | effect of a mutation on the interaction
G114E;P115R | increasing interaction
